In article PMC10415118:

How the values were obtained:
Assay in all cases: purified protein
purified protein [1] = substrate: Nc1ccn([C@H]2C[C@H](O)[C@@H](CO)O2)c(=O)n1; conditions: 30 °C, dC 0.05-5 mM
purified protein [2] = substrate: Cc1cn([C@@H]2O[C@H](CO)[C@@H](O)[C@H]2O)c(=O)nc1N; conditions: 30 °C, 5mC 1-200 mM
purified protein [3] = substrate: Cc1cn([C@H]2C[C@H](O)[C@@H](CO)O2)c(=O)nc1N; conditions: 30 °C, 5mdC 1-100 mM
purified protein [4] = substrate: CO[C@@H]1[C@H](O)[C@@H](CO)O[C@H]1n1ccc(N)nc1=O; conditions: 30 °C, 2OmC 1-200 mM
purified protein [5] = substrate: Nc1ccn([C@@H]2O[C@H](CO)[C@@H](O)[C@H]2O)c(=O)n1; conditions: 30 °C, C 0.1-10 mM

B1: CDA (AtCDA; CYTIDINE DEAMINASE; CDA-Strep) (Arabidopsis thaliana) (protein)
chain: MDKPSFVIQSKEAESAAKQLGVSVIQLLPSLVKPAQSYARTPISKFNVAVVGLGSSGRIFLGVNVEFPNLPLHHSIHAEQFLVTNLTLNGERHLNFFAVSAAPCGHCRQFLQEIRDAPEIKILITDPNNSADSDSAADSDGFLRLGSFLPHRFGPDDLLGKDHPLLLESHDNHLKISDLDSICNGNTDSSADLKQTALAAANRSYAPYSLCPSGVSLVDCDGKVYRGWYMESAAYNPSMGPVQAALVDYVANGGGGGYERIVGAVLVEKEDAVVRQEHTARLLLETISPKCEFKVFHCYEA
Km (purified protein [1]): 0.28 ± 0.05 mM
kcat (purified protein [1]): 18.1 ± 0.66 s⁻¹
kcat/Km (purified protein [1]): 64800 M⁻¹ s⁻¹
Km (purified protein [2]): 8.05 ± 0.96 mM
kcat (purified protein [2]): 35.4 ± 1.04 s⁻¹
kcat/Km (purified protein [2]): 4400 M⁻¹ s⁻¹
Km (purified protein [3]): 3.92 ± 0.61 mM
kcat (purified protein [3]): 54.1 ± 1.68 s⁻¹
kcat/Km (purified protein [3]): 13800 M⁻¹ s⁻¹
Km (purified protein [4]): 8.34 ± 1.12 mM
kcat (purified protein [4]): 35.5 ± 1.12 s⁻¹
kcat/Km (purified protein [4]): 4300 M⁻¹ s⁻¹
Km (purified protein [5]): 0.82 ± 0.15 mM
kcat (purified protein [5]): 29.4 ± 1.65 s⁻¹
kcat/Km (purified protein [5]): 35900 M⁻¹ s⁻¹
